Consider four molecules from publication PMC11077084, “Biochemical characterization of the meiosis-essential yet evolutionarily divergent topoisomerase VIB-like protein MTOPVIB from Arabidopsis thaliana” (Nucleic Acids Research, 2024).

For series [1], the target named is T1, N. equitans Topo VI complex (Topo VIA•Topo VIB) (Nanoarchaeum equitans, UniProt Q74N98).
T1 construct: gene top6B; codon-optimized Topo VIA and VIB co-expressed from pETDuet in E. coli Rosetta (DE3) pLysS; heat step, Ni-NTA; A2B2 heterotetramer; with Type 2 DNA topoisomerase 6 subunit A
T1 sequence (Q74N98 1-567): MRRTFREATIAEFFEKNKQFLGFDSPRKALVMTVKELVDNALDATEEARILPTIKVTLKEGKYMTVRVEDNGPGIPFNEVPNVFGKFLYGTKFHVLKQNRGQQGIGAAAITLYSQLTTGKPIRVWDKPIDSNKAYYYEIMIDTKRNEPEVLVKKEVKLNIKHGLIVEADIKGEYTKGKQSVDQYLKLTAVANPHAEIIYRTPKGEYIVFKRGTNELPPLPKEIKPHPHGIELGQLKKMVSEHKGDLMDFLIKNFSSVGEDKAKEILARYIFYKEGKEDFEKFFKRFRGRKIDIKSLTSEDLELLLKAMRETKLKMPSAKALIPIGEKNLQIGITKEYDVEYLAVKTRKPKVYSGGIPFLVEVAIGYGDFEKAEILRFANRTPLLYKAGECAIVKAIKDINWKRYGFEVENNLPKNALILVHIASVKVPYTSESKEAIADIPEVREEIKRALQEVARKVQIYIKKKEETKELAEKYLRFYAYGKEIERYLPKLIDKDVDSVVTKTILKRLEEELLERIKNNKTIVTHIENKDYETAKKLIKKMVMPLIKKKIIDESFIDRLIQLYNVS
T1 sequence (Q74M54 1-359 partner): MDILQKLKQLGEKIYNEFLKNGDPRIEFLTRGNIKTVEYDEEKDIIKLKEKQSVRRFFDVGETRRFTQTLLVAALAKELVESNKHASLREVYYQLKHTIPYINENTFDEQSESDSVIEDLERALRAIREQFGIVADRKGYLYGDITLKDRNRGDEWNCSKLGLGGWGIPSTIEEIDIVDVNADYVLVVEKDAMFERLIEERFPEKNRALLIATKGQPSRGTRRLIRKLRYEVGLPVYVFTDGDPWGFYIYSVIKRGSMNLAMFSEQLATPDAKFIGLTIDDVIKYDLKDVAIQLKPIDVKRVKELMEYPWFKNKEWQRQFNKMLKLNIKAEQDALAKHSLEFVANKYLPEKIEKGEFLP
The series is described as follows: radioisotope-based ATPase assay; also ATP-agarose pulldown. The class given is biochemical. The settings on record: labelled compound (gamma-32P) in the ATPase assay.

Series [2] deals with the molecule itself. The series is described as follows: SEC; purified MBP-tagged MTOPVIB on a Superdex 200 Increase 10/300 GL column calibrated with size standards; without ATP; monomer to dimer. A general note: In gel filtration, larger molecules generally elute earlier.
Series [3] deals with the molecule itself. The series is described as follows: SEC; Hi-Load Superdex 200 in D buffer without imidazole and glycerol, last step of the purification; monomer to dimer.
The next series deals with T2, MTOPVIB (Arabidopsis thaliana, UniProt Q5Q0E6 1-473).
T2 sequence: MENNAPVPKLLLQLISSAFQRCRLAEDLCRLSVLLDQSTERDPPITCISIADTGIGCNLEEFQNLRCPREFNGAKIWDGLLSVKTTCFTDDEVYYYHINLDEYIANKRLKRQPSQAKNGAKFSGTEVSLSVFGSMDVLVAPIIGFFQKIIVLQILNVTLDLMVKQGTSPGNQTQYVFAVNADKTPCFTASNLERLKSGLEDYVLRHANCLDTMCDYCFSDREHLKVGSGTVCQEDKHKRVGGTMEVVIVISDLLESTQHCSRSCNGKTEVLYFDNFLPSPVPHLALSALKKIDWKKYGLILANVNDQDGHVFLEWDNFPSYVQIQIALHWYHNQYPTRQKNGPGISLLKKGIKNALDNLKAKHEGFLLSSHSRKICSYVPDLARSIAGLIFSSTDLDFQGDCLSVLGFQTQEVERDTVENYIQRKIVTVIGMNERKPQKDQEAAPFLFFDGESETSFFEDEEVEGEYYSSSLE
The series is described as follows: SPR; reaction buffer F, 0.05% Tween 20, 23 C; 1:1 global fit; EMSA: reaction buffer F (composition not in material) + 0.1 mg/ml BSA, 23 C, 30 min, 0.8% agarose-TBE at 4 C (6% PAGE for the competition); SPR: buffer F + 0.05% Tween 20, 23 C. The settings on record: protein: recombinant; tags: none (His6-MBP removed by PreScission); chain copies: 2; label: 5' biotin on Oligo 1; blunt. (SPR reads the build-up and loss of mass on a sensor chip optically.)

For the molecule `Nc1ncnc2c1ncn2[C@@H]1O[C@H](COP(=O)(O)OP(=O)(O)OP(=O)(O)O)[C@@H](O)[C@H]1O` [ATP], the “radioisotope-based ATPase assay; also ATP-agarose pulldown” value in series [1] is on record as “unlike the Topo VI complex that hydrolyzed ATP to release”.

B1: A. thaliana His6-MBP-MTOPVIB (natural protein, UniProt Q5Q0E6 1-473, looked up)
chain: T2 sequence
notes: a PreScission protease site lies between the tag and the protein; Tag not cleaved in the size-exclusion analysis (MBP-tagged MTOPVIB) nor during the amylose step of the complex purification; also called MBP-tagged MTOPVIB; meiotic Topo VIB-like protein; source: High Five insect cells (baculovirus); purified alone (amylose, heparin, Mono Q, Superdex 200), and co-expressed with His6-SPO11-1 and …
The stoichiometry N is a count of units in the complex or per binding partner. Turning to B1, the “stoichiometry N” value in series [2] was 2.

B2: Nanoarchaeum equitans Topo VIB (expressed alone from pET21b) (natural protein, UniProt Q74N98 1-567, looked up)
chain: T1 sequence (Q74N98 1-567)
notes: Topoisomerase VI subunit B, Nanoarchaeum equitans, codon-optimized cDNA in the Nde1 and Xho1 sites of pET21b; The tag is inferred from the vector and the Ni-NTA step; also called N. equitans Topo VIB; source: E. coli Rosetta (DE3) pLysS, purified (Ni-NTA, HiPrep SP XL, Hi-Load Superdex 200)
Take B2: the “stoichiometry N” value in series [3] came out at 2.

B3: 80 bp dsDNA, biotinylated (dsDNA)
DNA 1: TTATGTTCATTTTTTATATCCTTTACTTTATTTTCTCTGTTTATTCATTTACTTATTTTGTATTATCCTTATCTTATTTA
DNA 2: TAAATAAGATAAGGATAATACAAAATAAGTAAATGAATAAACAGAGAAAATAAAGTAAAGGATATAAAAAATGAACATAA
As a reminder, the Kd is the concentration at which binding is half-saturated. Regarding B3, the equilibrium dissociation constant (Kd) in the series with MTOPVIB is approximately 150 nM.
